The nature of the data set: label from the status in PepcDB records.
Turning to “MLAAAVLPKLLRHMPLSMPMVFLGSGILAFTLLPELPDPDPVKYGDFTTHLTEVCVIISLMGAGLALDRPFRWRGWSTTWRLLGIVMPLCILVMTLLGLWVLGLGLAGAILVAGAIAPTDPVLASEVQVGKPADAEDDPDEDEVRFALTSEAGLNDGLAFPFVYLAILISLVGASPDAWLGEWVALDVLWRTVAGVLVGFGTGKLLSMFFFAAKGKTFRLSEHSEGFVALAATFLAYGAAEMVEGYGFVAVFLCALTIRSAEHNHSYHQVLHSYVEQLERLMTVVILVLLGGAIARGLLEGIGWTEVLVALAFLLLVRPLAGWLGLMGGKTGPRERLAISYFGIRGIGSLFYVAYALTHGNFDAEARELWALIGLVVALSIVVHGATTAPLMNRLDRLRVAEARKQHGDEGRAPTTAV”, the protein production result is given as “failed”.

As for “MPVKRIAVFSTTHIGFLDMLGRSDGIIGVSRPEFVNTPAVRSRIRSGAIKAIGMPFSPDVEALLNLEPDLVIAPALPAARKTDYQALVQAGIPVLVVAEWLEPSPLGRAEWIKLFGALVGKEKLARERFAAIESSYLKIAALSRNLPLEHHHHHH”, the protein production entry is listed as “failed”. The same measure for “MTDRQLIVLAALNIMVAVGAGAFGAHGLRRVVDPTLLAIWHTGVLYHLIHALGLFVVALLGARFGSPLLSMAGLVMFIGILLFCGSLYVLVLTGTRWLGAVTPLGGVAFLAAWAMVAWAAWRAPA”: “failed”. The same measure for “GLIDESEQRLVDNIFEFEEKKIREIMVPRTDMVCIYESDSEEKILAILKEEGVTRYPVCRKNKDDILGFVHIRDLYNQKINENKIELEEILRDIIYISENLTIDKALERIRKEKLQLAIVVDEYGGTSGVVTIEDILEEIVGEIQ”: “not failed”. As for “MGIELVMENAHWFWLSLGGLLLAAEMLGGSGYLLWSGLSAVLVGLLTWIMPLGWPWQGTIFAILTIVTALLWWYWLRKRTLSRPPSTLNQRGQQLVGLRATVSESVTNGFGRVNIGDSSWRVKSEQDLPAGTHVEVIAVDGITLHVRSIER”, the protein production result is listed as “failed”. The same measure for “MIIRGIRGARINNEIFNLGLKFQILNADVVATKKHVLHAINQAKTKKPIAKSFWMEILVRASGQRQIHEAIKIIGAKDGNVCLICEDEETFRKIYELIGGEIDDSVLEINEDKERLIREIFKIRGFGNVVERVLEKIALIELKKE”: “not failed”; for “MDVQIHPMIIELAAFQAAKCGSVVGFGMVPSRNPSIKAASFFGIMVVTRSHVGESKDKGKEVEIAEPIESLILWLEELVAKQNKAMMRPMSDMMGAISRSTSHKLHDEQSTRDWSLPRSSTSTDDRSGHPVYRRKNRYDQVRYDAHQHYGNLTRLGKIDISRLDGIGIKEWLFKVEEFFGVDFTLQI”: “failed”; for “LDDLSEFVDQVPLLDHHCHFLIDGKVPNRDDRLAQVSTEADKDYPLADTKNRLAYHGFLALAKEFALDANNPLAAMNDPGYATYNHRIFGHFHFKELLIDTGFVPDDPILDLDQTAELVGIPVKAIYRLETHAEDFMLEHDNFAAWWQAFSNDVKQAKAHGFVGFKSIAAYRVGLHLEPVNVIEAAAGFDTWKHSGEKRLTSKPLIDYMLYHVAPFIIAQDMPLQFHVGYGDADTDMYLGNPLLMRDYLKAFTKKGLKVVLLHCYPYHREAGYLASVFPNLYFDISLLDNLGPSGASRVFNEAVELAPYTRILFASDASTYPEMYGLAARQFKQALVAHFNQLPFVDLAQKKAWINAICWQTSAKLYHQERELRV”: “not failed”. “LKKAGGALIAGVLKNGPADDAGIKPGDVLVAVNGKPIFNSSEMLNMVASLAPGKSATLTILRHGGQQDIQVRIGKRPS”: the protein production result is on record as “failed”. For the sequence “MKAIILAGGHSVRFGKPKAFAEVNGETFYSRVIKTLESTNMFNEIIISTNAQLATQFKYPNVVIDDENHNDKGPLAGIYTIMKQHPEEELFFVVSVDTPMITGKAVSTLYQFLVSHLIENHLDVAAFKEDGRFIPTIAFYSPNALGAITKALHSDNYSFKNIYHELSTDYLDVRDVDAPSYWYKNINYQHDLDALIQKLLEHHHHHH”, the protein production result is reported as “not failed”.

Take “MMMIFAVLGIFDFLRGEDEGESLEKYLRKLEDLLEEEFDTLVRIAGFYAEEGDTREALDYLERAYRVASEMNDEELMAFALDSMGDVYLSDRKVKTAMEYFMEALRIYTSVNSPLRADLREKIKEVEKIREAMDIASINRLREESESGMPEVDLEVIEPLLNRLVDSVQSLTLYEAGSYEDSISQIMEAYQIARDIGDTSTEASLQLLLGLYSLKNEDFDESRRYLKKAEALFRKTNNELGLAVALVLLGTLDFIRNNADGVASSFRAAVEILQKLDEKELESVTLELLNTLYSF”: the protein production entry was “failed”. In the case of “MKELNIALLGLGTVGSGVVKIIEENRQQIKDTINKDIVIKHILVRDKSKKRPLNISQYHLTEDINDILNDNSIDIVVEVMGGIEPTVDWLRTALKNKKHVITANKDLLAIHLKLLEDLAEENGVALKFEASVAGGIPIVNAINNGLNANNISKFMGIFNGTSNFILSKMTHEQTTFKDALEEAQRLGFAEADPTDDVEGVDAARKVVITSYLSFNQVIKLNDVKSVGISDITLADINAANSLNYKIKLIGKGTYENGYVNASVEPTLIHKNHQLAAVENEYNAIYVIGDAVGDTMFYGKGAGSLATGSAVVSDLLNVALFFESNLHTLPPHFELKTEETKEMMDGAEPVVIQEKSNYYIVISNNNKSLEKVEYDIKKKLPFHKSLQLVERDQDTYAIIVTGIETSPEKVLNQSGFNIKKVYPVEGV”, the protein production result is given as “failed”.

For “MIHYYKLFWINALNIKGRARRKEFWYPFLMNILINIMLEIIFFLLPIPAIIEDTVGWIVYILILVAMFTVTVRRFHDVGMTMLIPIIIFLIAVINDFSEFINSDIPTLDNSALTVIAVIFGVVYIVILIVSLAVCCTSGQKETNQYGVNPKAVE”, the protein production result is given as “failed”. The same measure for “RIGDGSPSHPPILERTLDDVPGPPMGILFPEVRTTSVRLIWQPPAAPNGIILAYQITHRLNTTTANTATVEVLAPSARQYTATGLKPESVYLFRITAQTRKGWGEAAEALVVTTEKR”: “not failed”; for “MFQPLLDAFIESASIEKMVSKSPPPPLKIAVANWWGDEEIKEFKKSVLYFILSQRYAITLHQNPNESSDLVFSNPLGAARKILSYQNTKRVFYTGENESPNFNLFDYAIGFDELDFNDRYLRMPLYYAHLHYEAELVNDTTAPYKLKDNSLYALKKPSHHFKENHPNLCAVVNDESDLLKRGFASFVASNANAPMRNAFYDALNSIEPVTGGGSVRNTLGYKVGNKSEFLSQYKFNLCFENSQGYGYVTEKILDAYFSHTIPIYWGSPSVAKDFNPKSFVNVHDFNNFDEAIDYIKYLHTHPNAYLDMLYENPLNTLDGKAYFYQDLSFKKILDFFKTILENDTIYHNNPFIFYRDLHEPLISIDDLRVNYDDLRVNYDDLRVNYDDLRVNYDDLRVNYDDLRVNYDDLRVNYDDLRVNYDDLRVNYDDLRVNYDRLLQNASPLLELSQNTTFKIYRKAYQKSLPLLRTIRRWVKK”: “failed”; for “MLTQTLDSPSGAKRLRVMSRHEREPVSQSKTDFSQQTRWMLAVRDNRDRLAFAALFDHFAPRLKGFVIRSGTPAHQAEEIVQDVMLTIWRKAAMFDPHRAQVSAWIYQIARNRQIDIARKENRPMPEELKEEPGTEPDASQILGLEQEAGQLKQALANLKPEQREIIEKAYLGELTHQEISAQTGLPLGTIKSRIRLGLERLRYELKDLKQ”: “failed”. The same measure for “MTASIFSGVIPALMTPCRQDRTPDFDALVRKGKELIADGMSAVVYCGSMGDWPLLTDEQRMEGVERLVKAGIPVIVGTGAVNTASAVAHAVHAQKVGAKGLMVIPRVLSRGSVIAAQKAHFKAILSAAPEIPAVIYNSPYYGFATRADLFFALRAEHKNLVGFKEFGGPADMRYAAENITSRDDEVTLMIGVDTAVVHGFVNCGATGAITGIGNVLPKEVIHLCKLSQAAAKGDADARARALELEQALAVLSSFDEGPDLVLYFKYMMVLKGDKEYTLHFNETDALTDSQRGYVEAQFKLFNSWYADWSKLPGAVQTCKAA”: “not failed”; for “MHCLIHVPELMNVKGIGGFENLCDLELLTSYLEEVDLIMTNHSTKRSSRSFKISRDHSTTRSSRAHHHFTSPLDPERSSNSITPLDCILDDKLQSLLHSALNQTLEHKEEKKIPAIHSSSHSTTLVEYSS”: “failed”.

The record behind these values is a protein production outcome set (Wang et al. 2014).
